Measurements taken from patent US20080280358A1 (University of California, published 2008).

Molecular target: Purified rabbit muscle actin (Cytoskeleton Inc.) (rabbit, UniProt P68135 3-377)
Assay: cell-based or functional assay

| bundling activity at 1:1 molar ratio to actin | bundling activity at molar ratio peptide:actin = 1:1 | bundling when the peptide is present during polymerization | effective peptide to actin ratio for bundling | molar ratio of peptide to actin giving half-bundled and half-F-actin (co-polymerization, centrifugation, SDS-PAGE) | molar ratio of peptide:actin to bundle all the F-actin during polymerization | bundling activity at molar ratio 100:1 | bundling activity at molar ratio to actin of 10 and 50 | bundling activity at molar ratio 10:1 and 100:1 | Binder |
| --- | --- | --- | --- | --- | --- | --- | --- | --- | --- |
| 1 molar ratio peptide:actin | 1 molar ratio peptide:actin | 2 molar ratio peptide:actin | 1 molar ratio peptide:actin | 0.5 molar ratio peptide:actin | 1 molar ratio peptide:actin | – | – | – | GIVRKWISRFEVWPYLKK [SS2 active peptide (SuSy 377-392)] |
| 1 molar ratio peptide:actin | 1 molar ratio peptide:actin | – | 1 molar ratio peptide:actin | – | – | 100 molar ratio peptide:actin | 50 molar ratio peptide:actin | – | GIVRKWISRFEVWPYL [SS12 active synthetic peptide] |
| – | 1 molar ratio peptide:actin | – | ~16 molar ratio peptide:actin | – | – | – | – | 10 molar ratio peptide:actin | GIVRKAISRFEVAPYL [SS15 less active synthetic peptide] |
